This sample holds only a part of the variants without activity.
What was measured:
biotinyl-Ile-oxazolone = assay: self-aminoacylation, catalytic enhancement (BIO) (fold over background); higher = more active; k-Seq, kA / k0A0; sequences stand for … in GGGAAUGGAUCCACAUCUACGAAUUC…UUCACUGCAGACUUGACGAAGCUG
Method in brief: (§1)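 The uncatalyzed rate is the low-activity peak of a bimodal Gaussian fit, and catalytic enhancement is median kA divided by it. The kA values came from pseudo-first-order fits, with 1000 bootstraps, of per-sequence fraction reacted measured by streptavidin capture, triplicate qPCR and Illumina sequencing. Mutagenized RNA pools with a 21-nt variable region (0.43 μM) were reacted with each biotinyl-aminoacyl-oxazolone at 2–1250 μM in 50 μL HEPES/NaCl/KCl/MgCl2/CaCl2 buffer with 5% acetonitrile, pH 6.9–7.0, for 90 minutes at room temperature.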

biotinyl-Trp-oxazolone = assay: self-aminoacylation, catalytic enhancement (BWO) (fold over background); higher = more active; k-Seq, kA / k0A0; sequences stand for … in GGGAAUGGAUCCACAUCUACGAAUUC…UUCACUGCAGACUUGACGAAGCUG
Method in brief: as §1

biotinyl-Val-oxazolone = assay: self-aminoacylation, catalytic enhancement (BVO) (fold over background); higher = more active; k-Seq, kA / k0A0; sequences stand for … in GGGAAUGGAUCCACAUCUACGAAUUC…UUCACUGCAGACUUGACGAAGCUG
Method in brief: as §1

biotinyl-Phe-oxazolone = assay: self-aminoacylation, catalytic enhancement (BFO) (fold over background); higher = more active; k-Seq, kA / k0A0; sequences stand for … in GGGAAUGGAUCCACAUCUACGAAUUC…UUCACUGCAGACUUGACGAAGCUG
Method in brief: as §1

biotinyl-Leu-oxazolone = assay: self-aminoacylation, catalytic enhancement (BLO) (fold over background); higher = more active; k-Seq, kA / k0A0; sequences stand for … in GGGAAUGGAUCCACAUCUACGAAUUC…UUCACUGCAGACUUGACGAAGCUG
Method in brief: as §1

biotinyl-Met-oxazolone = assay: self-aminoacylation, catalytic enhancement (BMO) (fold over background); higher = more active; k-Seq, kA / k0A0; sequences stand for … in GGGAAUGGAUCCACAUCUACGAAUUC…UUCACUGCAGACUUGACGAAGCUG
Method in brief: as §1

Sequence	self-aminoacylation (biotinyl-Ile-oxazolone)	self-aminoacylation (biotinyl-Trp-oxazolone)	self-aminoacylation (biotinyl-Val-oxazolone)	self-aminoacylation (biotinyl-Phe-oxazolone)	self-aminoacylation (biotinyl-Leu-oxazolone)	self-aminoacylation (biotinyl-Met-oxazolone)
CGACACUUCAUGCAAUCGGUC [Fam1B.1 aminoacylation ribozyme variant]	1.05	0.973	1.17	1.34	0.932	0.971
CGACACUUCGAGCAAUCGGUC [Fam1B.1 aminoacylation ribozyme variant]	1.24	0.998	1.4	1.37	1.18	1.28
CGACUCUUCAAGCAAUCGGUC [Fam1B.1 aminoacylation ribozyme variant]	1.22	3.07	1.32	3.23	0.86	1.02
CGACUUCAAACAAUCCGUCUG [Fam1A.1 aminoacylation ribozyme variant]	1.27	1.72	1.18	2.5	1.07	1.23
CGACUUCAAACAAUCGCUCUG [Fam1A.1 aminoacylation ribozyme variant]	1.42	3.07	1.24	3.61	1.42	1.36
CGACUUCAAACAAUCGGCCUG [Fam1A.1 aminoacylation ribozyme variant]	3.29	95.7	4.06	277	6.69	3.62
CGACUUCAAACAAUCGGUCAG [Fam1A.1 aminoacylation ribozyme variant]	0.915	4.08	0.883	8.58	0.772	0.707
CGACUUCAAACAAUCGGUCGG [Fam1A.1 aminoacylation ribozyme variant]	2.47	5.43	2.08	9.34	2.68	1.99
CGACUUCAAACAGUCGGUCUG [Fam1A.1 aminoacylation ribozyme variant]	1.83	1.98	1.84	10	1.63	1.71
CGACUUCAAACGAUCGGUCUG [Fam1A.1 aminoacylation ribozyme variant]	1.05	2.1	1.13	1.8	1.41	1.31
CGACUUCACACAAUCGGUCUG [Fam1A.1 aminoacylation ribozyme variant]	1.05	1.01	1.14	1.07	1.23	0.934
CGACUUCUAACAAUCGGUCUG [Fam1A.1 aminoacylation ribozyme variant]	0.905	0.591	0.931	0.961	0.917	0.936
CGAUUUCAAACAAUCGGUCUG [Fam1A.1 aminoacylation ribozyme variant]	1.74	5.97	1.66	16.4	1.63	1.46
CGGUUUGCUAAUAGUCGCAAG [Fam3.1 aminoacylation ribozyme variant]	1.18	1.68	1.18	2.27	1.17	1.17
CUAAACUUCAAGCAAUCGGUC [Fam1B.1 aminoacylation ribozyme variant]	0.956	15.1	1.03	33.1	1.26	0.876
CUAAUUAAAACAAUCGGUCUG [Fam1A.1 aminoacylation ribozyme variant]	0.791	0.564	0.738	0.555	0.782	0.827
CUAAUUCAAACAAUCAGUCUG [Fam1A.1 aminoacylation ribozyme variant]	0.659	1.44	0.772	3.65	0.674	0.702
CUAAUUCAAACAAUCGGUCUU [Fam1A.1 aminoacylation ribozyme variant]	0.743	1.32	0.716	2.49	0.629	0.695
CUAAUUCAAACAAUCGGUGUG [Fam1A.1 aminoacylation ribozyme variant]	0.75	0.691	0.659	0.924	1.01	0.913
CUAAUUCAAACAAUGGGUCUG [Fam1A.1 aminoacylation ribozyme variant]	0.742	0.468	0.739	0.481	0.643	0.777
CUAAUUCAAACAAUUGGUCUG [Fam1A.1 aminoacylation ribozyme variant]	0.839	0.572	0.687	0.608	0.744	0.776
CUAAUUCACACAAUCGGUCUG [Fam1A.1 aminoacylation ribozyme variant]	0.912	0.598	0.771	0.759	0.85	0.874
CUACACCUAGGUCAUCGGGUG [Fam2.2 aminoacylation ribozyme variant]	1.72	2.08	1.72	3.13	2.12	2.27
CUACACCUCAAGCAAUCGGUC [Fam1B.1 aminoacylation ribozyme variant]	1.01	1.41	0.976	2.14	0.8	0.869
CUACACUUCAAACAAUCGGUC [Fam1B.1 aminoacylation ribozyme variant]	1.22	39	1.27	88.2	2.08	1.34

Source: the supplement of paper PMC9233669
